The results in this text go back to patent publication US20240270826A1 (NATIONAL RESEARCH COUNCIL OF CANADA, published 2024).

B1: NRCoV2-SR02 VHH (VHH)
VHH: EVQLVDSGGGLVQAGGSLRLSCTASEFTLNYYSIGWFRQSPGKEREGVSCIRYSGGGIDYADSVKGRFTISRDNAKNTVYLTMNSLKPEDTAVYYCAADRLYSRACPTAGGRNYWGQGTQVTVSS
B2: NRCoV2-SR01 VHH (VHH)
VHH: EVQLVQSGGGSVQAGGSLRLSCVASGFTFDNYAIGWFRQAPGKEREGVSCISGNGGVTIYADSVKGRFTISRDNAKNLVYLQMNSLKPEDTAVYYCAATGIRSTWSVYGCSRLAGPYDYWGQGTQVTVSS
B3: NRCoV2-S2A4 VHH (VHH)
VHH: QVQLVQSGGGLVQAGGSLRLSCAVSGSPFRSNVMEWYRQAPGKQRELVASISTGGSRTYTDSVKGRFTISRDNAKNEAFLQMNSLKPEDTAVYYCHAAARDSHGIYLLDTWGQGTQVTVSS
B4: NRCoV2-MRed22 VHH (VHH)
VHH: EVQLVESGGGLVQPGGSLRLSCAASGSVFASNAMGWYRQAPGKQRELVATISSRGSTNYADSVKGRFTISRDNAKNTVYLQMNSLGPEDTAVYYCNAREFTGFDYWGQGTQVTVSS
B5: NRCoV2-S2F3 VHH (VHH)
VHH: EVQLVQSGGGLVQAGGSLRLSCATSVRILSVPAMGWYRQAPGKEREMVAVITSGGSTNYADSVKGRFTISRDNAKNTVYLQMNSLKLEDTAVYQCNLRDILSQPFWGQGTQVTVSS
B6: NRCoV2-MRed19 VHH (VHH)
VHH: EVQLVESGGGLVQPGGSLRLSCAASTIIFKGQTMGWFRQAPGNERELVATMTTSGSANYADSVKGRFTISRDNEKTVTLQMNSLKPEDTALYYCYMHSVYYGIDYWGKGTQVTVSS
B7: NRCoV2-MRed11 VHH (VHH)
VHH: EVQLVESGGGLVQAGGSLRLSCAASGFTFSSYAMSWHRQAPGKGLEWVSAINSGGGSTSYADSVKGRFAISRDNAKNTLYLQMNSLKPEDTAVYYCATTISDGSSWSTKSYRGQGTQVTVSS
B8: NRCoV2-MRed20 VHH (VHH)
VHH: EVQLVESGGGSVQAGGSLRLSCAASGLSFSSYDMGWFRQAPGKEREFVAAIRESGSGTYYADSVKGRFTISRDNAKNTVYLQVSSLKPEDTAVYTCAAKPPFYGSGTYSTPRAYLYWGQGTQVTVSS
B9: NRCoV2-S2G3 VHH (VHH)
VHH: QVQLVQSGGGSVQAGGSLRLSCAASGSTFGIFLMGWRRQAPGKQRELVAHITSGGATNYADSVKGRFTISRDNAKNTVYLQMNSLEPEDTAVYYCYTTKRDDASVYWGQGTQVTVSS
B10: NRCoV2-S2G4 VHH (VHH)
VHH: QVQLVQSGGGLVQAGGSLTLSCAPSGSTFSGYATNWYRQAPGKQRELVATISSDGDKNYADSVKGRFTISRDNAKNTVYLQMNSLKPEDTAVYYCNKHWWTGDWWGQGTQVTVSS
B11: NRCoV2-MRed25 VHH (VHH)
VHH: EVQLVESGGGLVQAGGSLRLSCAASGHTFSRYGMGWFRQAPGKEREFVAAISWRGDSTYYRDSVNGRFTISRDNAKNTVYLGMNSLKPEDTAVYYCAAEMWGTATIVASRYTYWGQGTQVTVSS
B12: NRCoV2-MRed18 VHH (VHH)
VHH: EVQLVESGGGLVQPGGSLRLSCAASTTVFGRNAMGWYRQAPGKERELVATVSDGGTPNYADSVKGRFTISRDNAKNTIYLQMNSLEPEDTAVYYCNYYNYYYGRNFWGQGTQVTVSS
B13: NRCoV2-10 VHH (VHH)
VHH: QLQLQESGGGLVQPGGSLTLSCAASGNTFSRSNMHWYRQAPGAQREWVAAISSRGISTYAYSAKGRFTISRDNAKNTVSLQMNSLKPEDTAVYYCYAADDLGDYWGQGTQVTVSS
B14: NRCoV2-15 VHH (VHH)
VHH: EVQLVSSGGGLVEAGGSLRLSCIASGSTSGRNTMGWFRQAPGKQREWVAIVSTSGATNYAGSVKGRFTLSRDNAKNAVYLQMNNLKPEDTAVYYCYAAYGGGGDYWGQGTQVTVSS
B15: NRCoV2-18 VHH (VHH)
VHH: EVQLVESGGGLVQAGGSLRLSCVASGITISGYNMAWWRQTRGKQTERVAFINSGGSTTYSDSVKGRFTISRDNGKNTAYLQMNSLNAEDTADYFCSLHTSHDYWGQGTQVTVSS
B16: NRCoV2-14 VHH (VHH)
VHH: EVQLVSSGGGLVQAGGSLRLSCEASGTTFSHYAVGWYRQAPGKQREWVASISVFGSTTYGGSVAGRFTISRDNDKNTVDLQMNSLKPEDTAVYYCHAVNADIGGDYWGQGTQVTVSS
B17: NRCoV2-MRed05 VHH (VHH)
VHH: EVQLVESGGGLVQPGGSLRLSCAASGFTLDYYAIGWFRQAPGKEREGVSCISSSDGSTLYADSVKGRFTISRDNAKNTVYLQMNSLKPEDTAVYYCATGPQAYYSGSYYFQCPQAGMDYWGKGTQVTVSS
B18: NRCoV2-05 VHH (VHH)
VHH: EVKLVQSGGGLVQPGGSLRLSCAASGFIFSNYAMNWVRQAPGKGLEWVSGINSGGGDTRYADSVKGRFTVSRDNAKNTLYLQMNSLKPEDTGVYYCSKGPVSSYYGSGYDYRGQGTQVTVSS
B19: NRCoV2-20 VHH (VHH)
VHH: EVQLQQSGGGLVQPGGSLRLSCAASGRTFSNYVVGWFRQAPQAPGKDHEFVAVISGSDTETYYADSVKGRFTISRDNAKNTVYLQMNSLKPEDTAVYYCAADRGMSYYYTRATEYYYWGQGTQVTVSS
B20: NRCoV2-MRed04 VHH (VHH)
VHH: EVQLVESGGGLVQPGRSLRLSCAASGNSFSISTMGWFRQAPGKERELVASIWSDTTTSYADSVKGRFTISTDNTRTKVYLQMSSLNPEDTAVYYCAADRGFVVRGQYDYWGQGTQVTVSS

For orientation: Kd means the concentration at which binding is half-saturated. The term koff denotes a measure of how fast the partners let go of each other. A higher koff goes with fast dissociation. Broadly, the kon is the second-order rate constant of association. The low end stands for slower complex formation, the high end for faster complex formation. The term IC50 denotes the point on the concentration scale where inhibition reaches its midpoint. Higher therefore signals a need for much substance. What is called IC99 is the point of the concentration-response curve where the effect stands at 99%. A low value points to an effect from little substance.

For one assay, the target named is T1, SARS-CoV-2 spike trimer S (Wuhan, SmT1) (SARS-CoV-2 Wuhan).
T1 construct: extracellular domain
Briefly: SPR, antigen on chip. In general terms: In SPR one partner is held on a chip, and binding of the other changes the refractive index at the surface.
Molecule B1 returned a Kd of 0.59 nM, a koff of 0.000571 s⁻¹ and a kon of 967000 M⁻¹ s⁻¹.
In turn, B2 gave a Kd of 0.445 nM, a koff of 0.00123 s⁻¹ and a kon of 2.77e+06 M⁻¹ s⁻¹.

A further assay addresses T2, SARS-CoV-2 S1 (aa16-685) (Wuhan) (SARS-CoV-2 Wuhan, UniProt P0DTC2 16-685).
T2 construct: NRC; FLAG, 6xHis tags
Briefly: SPR, antigen on chip.
In turn, B1 yielded a Kd of 0.53 nM, a koff of 0.000555 s⁻¹ and a kon of 1.05e+06 M⁻¹ s⁻¹.
For B2, in that order: 0.437 nM, 0.00158 s⁻¹ and 3.63e+06 M⁻¹ s⁻¹.

Another assay deals with T3, SARS-CoV-2 S2 (aa686-1208) (Wuhan) (SARS-CoV-2 Wuhan, UniProt P0DTC2 686-1208).
T3 construct: NRC; FLAG, 6xHis tags
Briefly: SPR, antigen on chip.
Regarding B1, the binding result is on record as “no binding”.
On the same count and under the same terms, as for B2, the entry is “no binding”.

A further assay has as its target T4, Human SARS-CoV-2_Wuhan S (SmT1) (SARS-CoV-2 (Wuhan), UniProt P0DTC2 14-1208). The assay is described as follows: SPR, VHH over immobilised S.
Turning to B3, the Kd came to 12.8 nM, the koff is 0.000446 s⁻¹ and the kon worked out at 34900 M⁻¹ s⁻¹.
For B4, in that order: 0.506 nM, 0.000176 s⁻¹ and 347000 M⁻¹ s⁻¹.
For B5, in that order: 3.03 nM, 0.000473 s⁻¹ and 156000 M⁻¹ s⁻¹.
The corresponding values for B6 are 9.07 nM, 0.00118 s⁻¹ and 131000 M⁻¹ s⁻¹.
B7: the Kd worked out at 6.2 nM, the koff was found to be 0.000283 s⁻¹ and the on-rate constant (kon) turned out to be 45700 M⁻¹ s⁻¹.
B8: binding was put at a Kd of 0.0918 nM, the koff was determined as 1.46e-05 s⁻¹ and the kon stood at 160000 M⁻¹ s⁻¹.
B9 had a Kd of 1.87 nM, a koff of 0.000606 s⁻¹ and a kon of 324000 M⁻¹ s⁻¹.
The molecule B10 returned a Kd of 0.232 nM, a koff of 0.000207 s⁻¹ and a kon of 893000 M⁻¹ s⁻¹.
B11 registered a Kd of 1.02 nM, a koff of 0.000115 s⁻¹ and a kon of 112000 M⁻¹ s⁻¹.
B12 returned a Kd of 6.03 nM, a koff of 0.00119 s⁻¹ and a kon of 197000 M⁻¹ s⁻¹.

The target in a further assay is SARS-CoV spike (S) (SARS-CoV, UniProt P59594 14-1195). Briefly: SPR, VHH over immobilised S.
In the case of B3, the binding result is “no binding”.
On the same count and under the same terms, for B4 the value was “no binding”.
Turning to B5, the Kd stood at 4.91 nM, the koff was 0.00139 s⁻¹ and the kon stood at 282000 M⁻¹ s⁻¹.
For B6, in that order: 24.6 nM, 0.00614 s⁻¹ and 249000 M⁻¹ s⁻¹.
For the molecule B7, the binding result is “no binding”.
B8 had a Kd of 10.7 nM, an off-rate constant (koff) of 0.00406 s⁻¹ and a kon of 380000 M⁻¹ s⁻¹.
For B9, in that order: 4.27 nM, 0.0008 s⁻¹ and 187000 M⁻¹ s⁻¹.
With B10, the Kd turned out to be 0.799 nM, the koff was 0.000735 s⁻¹ and the kon turned out to be 920000 M⁻¹ s⁻¹.
B11 came in with a Kd of 2.29 nM, a koff of 5.01e-05 s⁻¹ and a kon of 21800 M⁻¹ s⁻¹.
For the molecule B12, the Kd worked out at 22.5 nM, the koff is 0.00677 s⁻¹ and the kon came to 300000 M⁻¹ s⁻¹.

Another assay addresses T4, Human SARS-CoV-2_Wuhan S (SmT1). Briefly: SPR, VHH over immobilised S. The source holds these as a separate data set.
B3 had a Kd of 12.8 nM. This counts as double-digit nanomolar.
Still for that read-out and setting: for B4 the value was 0.51 nM.
Take B5: binding was characterised by a dissociation constant (Kd) of 3.03 nM. This Kd is about 5.9-fold higher than that of the molecule before.
With B6, the affinity, expressed as Kd, was 9.07 nM.
Molecule B7 showed a Kd of 6.2 nM.
Same read-out and setting: for B8 the value was 0.092 nM.
Still for that read-out and setting: for B9 the value was 1.87 nM; for B10, 0.23 nM.
As for B11, the Kd worked out at 1.02 nM.
Still for that read-out and setting: for B12 the value was 6.03 nM.

The next assay deals with Human SARS-CoV-2_Wuhan S (SmT1) (SARS-CoV-2 (Wuhan), UniProt P0DTC2 14-1208). The assay is described as follows: flow cytometry SVNA, VHH vs biotin-S binding to Vero E6 ACE2.
For B13, the IC50 turned out to be 16.1 nM, the IC99 came out at 121 nM and the Imax % amounted to 50%.
The corresponding values for B14 are 12.1 nM, 233 nM and 44%.
B15 showed an IC50 of 8.9 nM, an IC99 of 133 nM and an Imax % of 51%.
The corresponding values for B16 are 21.3 nM, 17400 nM and 54%.
The corresponding values for B17 are 15 nM, 184 nM and 88%.
The corresponding values for B18 are 9.5 nM, 14.2 nM and 97%.
On to B19, for which the IC50 was determined as 5.1 nM, the IC99 amounted to 1370 nM and the Imax % stood at 43%.
The corresponding values for B20 are 6.1 nM, 124 nM and 53%.
